Results published in patent US20210214432A1 (Y BIOLOGICS, published 2021).
Where a chain is given by its changes, count along the chain named.

T1: DLK1-hFc fusion protein (extracellular region of human DLK1 fused with human Fc) (human, UniProt P80370 24-303)
T1 construct: The ELISA text says 'DLK1 protein'/'antigen DLK1' coated at 100 ng/well; also called hDLK1; DLK1 antigen
T1 sequence: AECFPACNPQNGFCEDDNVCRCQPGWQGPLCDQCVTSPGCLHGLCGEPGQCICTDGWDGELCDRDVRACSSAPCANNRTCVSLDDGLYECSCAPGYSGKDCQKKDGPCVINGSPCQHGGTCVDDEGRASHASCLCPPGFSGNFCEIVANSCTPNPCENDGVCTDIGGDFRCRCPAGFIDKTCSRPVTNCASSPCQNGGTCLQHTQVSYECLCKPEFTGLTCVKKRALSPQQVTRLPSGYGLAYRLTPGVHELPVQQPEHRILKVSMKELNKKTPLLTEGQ

T2: human DLK1 present on the cell surface (DLK1-overexpressing MIA PaCa-2 cells); SK-N-F1 cells endogenously … (human, UniProt P80370 24-383)
T2 sequence (looked up): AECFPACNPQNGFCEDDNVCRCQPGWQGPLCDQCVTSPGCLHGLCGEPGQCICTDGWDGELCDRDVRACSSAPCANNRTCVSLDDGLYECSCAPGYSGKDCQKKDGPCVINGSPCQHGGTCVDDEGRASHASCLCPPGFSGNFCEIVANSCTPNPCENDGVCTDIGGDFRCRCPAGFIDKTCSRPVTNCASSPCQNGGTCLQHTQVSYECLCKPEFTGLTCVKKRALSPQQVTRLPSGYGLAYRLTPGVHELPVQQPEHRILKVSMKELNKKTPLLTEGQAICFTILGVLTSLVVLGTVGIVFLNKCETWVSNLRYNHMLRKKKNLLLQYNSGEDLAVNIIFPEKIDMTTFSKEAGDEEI

B1: human anti-DLK1 monoclonal antibody 20D3 (antibody, V domains shown)
VH: QMQLVQSGGGLVQPGRSLRLSCAASGFTFDDYAMHWVRQAPGKGLEWVSGISWNSGSIGYADSVKGRFTISRDNAKNSLYLQMNSLRAEDTAVYYCTKGPGLATGKVYFNSWGQGTQVTVSS
VL: DIQMTQSPSSVSASVGDRVTITCRASQRISSWLAWYQQKPGRAPKLLIHSASTLHNGVPSRFSGSASGTDFTLTISSLQPEDFAIYYCQQGHSFPYTFGQGTKLDIK
notes: Converted from scFv to IgG
B2: human anti-DLK1 monoclonal antibody 35E2 (antibody, V domains shown)
VH: QVQLVESGGGVVQPGRSLRLSCAASGFTFSSYAMHWVRQAPGKGLEWVAVIYSGGSTYYADSVKGRFTISRDNSKNTLYLQMNSLRAEDTAVYYCAREGSYDVMTYTRIGGYFDYWGQGALVTVSS
VL: DIQMTQSPSSVSASVGDRVTITCRASQGISDWVAWYQQKPGKAPKLLIYAASSLQSGVPSRFSGSGSGTEFSLTISNLQPEDFATYYCQQANSFPLTFGPGTKVEIK
notes: Converted from scFv to IgG
B3: human anti-DLK1 monoclonal antibody 27F7 (antibody, V domains shown)
VH: QMQLVESGGGLVKPGGSLTLSCDATGFNFGSYYMNWVRQAPGKGLEWLAHISSTGRTIYYADSVKGRFTISRDNAKSSLDLQMNSLRAEDTAVYYCARDQGYPFGMDVWGHGTTVTVSS
VL: QLVLTQPSSVSGAPGQRVTISCTGSSSNIGAGYDVDWYQQLPGTAPKLLIYGNTNRPSGVPDRFSGSKSGTSASLAITGLQAEDDSDYYCQSYDSSLSAWVFGGGTKLTVL
notes: Converted from scFv to IgG
B4: human anti-DLK1 monoclonal antibody 17B11 (antibody, V domains shown)
VH: QVQLVESGGTLVQPGGSLRLSCAASGFTFSSHAMSWVRQTPGKGLEWVSSITKSGSGTYSADSVKGRFTISRDNSKNTLYLQMNSLRAEDTAVYYCTREGLGYYYGMDVWGQGTTVTVSS
VL: QLVLTQPPSVSGAPGQRVIISCTGSSSNIGAGYDVHWYQQLPGTAPRLLIYGSTNRPSGVPDRFSGSKSGTSASLAITGLQAEDEADYYCQSYDNSLSAHYVFGTGTKVTVL
notes: Converted from scFv to IgG (pNATVH/pNATVL, HEK293E)
B5: human anti-DLK1 monoclonal antibody 18A5 (antibody, V domains shown)
VH: QVQLVQSGGAVVQPGHSLRLSCEASGFKFKDYGMHWVRQAPGKGLEWLAVISHDGRNKNYADSVKGRLTISRDNSKNTLSFQMNSLRAEDTAVYYCVRDWSYAFDIWGQGTLVTVSS
VL: DIQMTQSPSFLSASVGDRVNITCRASQDISRRLAWYQQKPGKAPKLLIYGAASLQSAVASRFSGSGSGTEFTLTISSLQPEDFANYYCQQIYTTPLTFGGGTKVEIK
notes: Converted from scFv to IgG; also called DLK1-18A5
B6: human anti-DLK1 monoclonal antibody variant 18A5_AM_1A12 (antibody, V domains shown)
VH: B5 VH with A10G, H16G, E23A
VL: DIQMTQSPSFLSASVGDRVTITCRASHDISSSLAWYQQKSGKAPKLLIYSASNLKSGVPSRFSGSGSGTDFSLTISSLQPEDFATYYCQQSYTTVLTFGGGTKLEIK
B7: human anti-DLK1 monoclonal antibody variant 18A5_LS_1A10 (antibody, V domains shown)
VH: B5 VH
VL: DIQMTQSPSSLSASLGDRVTITCRASQGISSALAWYQQKPGKAPKLLIYAASSLQSGVPSRFSGSGSGTDFTLTINSLQPEDFATYYCQQSYTTPLTFGGGTKVEIK

Columns and labels:
[1] = molecular target: T1, DLK1-hFc fusion protein (extracellular …); experiment: ELISA, coated DLK1 antigen, IgG titrated 100 nM to 0.046 nM, GraphPad Prism fit
Procedure: First, 100 ng of DLK1 protein per well was seeded into an immuno-96 microwell plate using a coating buffer and surface-fixed at 4° C. overnight, PBS-T containing 200 μl of 4% skim milk powder was added to all wells, and then reacted for 1 hour at 37° C. to prevent nonspecific protein binding. Then, 200 μl of each cultured single scFv phage was added and reacted at 37° C. for 2 hours, washed three times with 200 μl of PBS-T, diluted at 1:2000 with mouse anti-M13-HPR antibody (GE healthcare, UK) conjugated with HRP (horseradish peroxidase), and reacted at 37° C. for 1 hour. The resulting product was washed three times with PBS-T again, and 10 μl of 30% hydrogen peroxide (H₂O₂) and a tablet of 4 mg OPD (o-phenylenediamine dihydrochloride, Sigma, USA) were added to 10 ml of PC buffer (0.1M Na₂HPO₄, 0.005M Na-citrate, pH 5.0) and reacted in the absence of light for 10 minutes. Then, the reaction was stopped with 50 μl of 2.5M sulfuric acid (H₂SO₄), and absorbance was measured at 490 nm using a spectrophotometer (SpectraMax M5 spectrophotometer, Molecular Devices, USA).

[2] = molecular target: T2, human DLK1 present on the cell surface …; experiment: cell-based or functional assay
[3] = molecular target: T2, human DLK1 present on the cell surface …; experiment: FACS, DLK1-overexpressing MIA PaCa-2 cells, antibody titrated 1/3 from 10 µg/ml
Procedure: Then, the cells were washed with cold PBS and then cultured at 4° C. for 1 hour using an anti-human IgG secondary antibody (Vector, USA) conjugated with fluorescein isothiocyanate (FITC, Vector, USA) fluorescence. Fluorescently stained cells were suspended in 500 μl of PBS containing 2% FBS (fetal bovine serum) and analyzed using a FACSCanto™ II flow cytometer (BD Biosciences, USA) and the amount of sample required to reach 50% of the maximum effect (EC₅₀) was measured.

Binder	Kd [1] [pM]	EC50 of cytotoxicity of 18A5-Fab ZAP in DLK1-overexpressing MIA PaCa-2 cells [2] [pM]	EC50 [3] [µg/mL]	EC50 of cytotoxicity of 18A5_AM_1A12-Fab ZAP in DLK1-overexpressing MIA PaCa-2 cells [2] [pM]	EC50 of cytotoxicity of 18A5_LS_1A10-Fab ZAP in DLK1-overexpressing MIA PaCa-2 cells [2] [pM]
B1	54000	–	–	–	–
B2	330	–	–	–	–
B3	220	–	–	–	–
B4	7190	–	–	–	–
B5	520	0.002	0.131	–	–
B6	13	–	0.0903	0.0026	–
B7	47	–	0.12	–	0.0011
